Common to all, as to experiment: SEC; analytical gel filtration of the purified rubisco; oligomer state read from the elution; conditions not shown (Appendix)
The target in data set [1] is Sulfurivirga caldicuralii rubisco (form-II) (Sulfurivirga caldicuralii).
Data set [2] has as its target Zetaproteobacteria_53_45 rubisco (form-II) (Zetaproteobacteria_53_45).
Data set [3] has as its target Gallionella sp. rubisco (form-II) (Gallionella sp.).
Data set [4] has as its target Acidithiobacillus ferrooxidans rubisco (form-II) (Acidithiobacillus ferrooxidans).
Data set [5] concerns the target Zetaproteobacterium rubisco (form-II) (Zetaproteobacterium).
Data set [6] deals with the molecule itself.

For the molecule “Sulfurivirga caldicuralii rubisco (form-II) (enzyme)”, in data set [1], the stoichiometry N stood at 4. On to “Zetaproteobacteria_53_45 rubisco (form-II) (enzyme)”, for which the stoichiometry N in data set [2] was determined as 2. The molecule “Gallionella sp. rubisco (form-II) (enzyme)” displayed a stoichiometry N in data set [3] of 2. In turn, “Acidithiobacillus ferrooxidans rubisco (form-II) (enzyme)” had a stoichiometry N in data set [4] of 6.

In data set [5], “Zetaproteobacterium rubisco (form-II) (enzyme)” showed a stoichiometry N of 2.

B1: Hydrogenovibrio marinus rubisco (form-II) (enzyme, UniProt Q59462 1-463, looked up)
chain: MDQSNRYADLTLTEEKLVADGNHLLVAYRLKPAAGYGFLEVAAHVAAESSTGTNVEVSTTDDFTRGVDALVYEIDEAAFGDKGGLMKIAYPVDLFDPNLIDGHYNVSHMWSLILGNNQGMGDHEGLRMLDFLVPEKMVKRFDGPATDISDLWKVLGRPEVDGGYIAGTIIKPKLGLRPEPFAKACYDFWLGGDFIKNDEPQANQNFCPMEVVIPKVAEAMDRAQQATGQAKLFSANVTADFHEEMIKRGEYVLGEFAKYGNEKHVAFLVDGFVTGPAGVTTSRRAFPDTYLHFHRAGHGAVTSYKSPMGMDPLCYMKLARLMGASGIHTGTMGYGKMEGHNDERVLAYMLERDECQGPYFYQKWYGMKPTTPIISGGMDALRLPGFFENLGHGNVINTCGGGSFGHIDSPAAGGISLGQAYACWKTGAEPIEAPREFARAFESFPGDADKIFPGWREKLGVHK
notes: form-II rubisco large subunit from Hydrogenovibrio marinus; scarless tag cleavage gives the native rubisco; source: E. coli BL21(DE3), purified (nickel magnetic beads, eluted by on-bead cleavage of the SUMO tag with bdSENP1); not shown: 14xHis, N-terminal, cleaved; bdSUMO, N-terminal, cleaved
Turning to B1, the “stoichiometry N” value in data set [6] turned out to be 2.
